The values that follow come from patent publication US20150064204A1 (Amgen, published 2015).

Where a chain is given by its changes, count along the chain named. Read-outs that look alike come from different tables or passages of the source.

Assay [1] has as its target T1, human GITR (human, UniProt Q9Y5U5 26-241).
T1 sequence: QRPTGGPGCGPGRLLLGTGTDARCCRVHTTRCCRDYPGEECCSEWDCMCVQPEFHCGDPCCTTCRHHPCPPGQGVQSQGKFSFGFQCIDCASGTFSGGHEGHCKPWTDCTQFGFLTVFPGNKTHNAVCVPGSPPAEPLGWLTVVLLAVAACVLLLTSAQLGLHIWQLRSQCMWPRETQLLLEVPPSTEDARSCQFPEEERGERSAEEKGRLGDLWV
The assay is described as follows: cell-based or functional assay.

The target of assay [2] is T2, cynomolgus monkey GITR (cynomolgus monkey, UniProt Q9Y5U5 26-241 (human entry)).
T2 construct: also called cyno GITR
T2 chain: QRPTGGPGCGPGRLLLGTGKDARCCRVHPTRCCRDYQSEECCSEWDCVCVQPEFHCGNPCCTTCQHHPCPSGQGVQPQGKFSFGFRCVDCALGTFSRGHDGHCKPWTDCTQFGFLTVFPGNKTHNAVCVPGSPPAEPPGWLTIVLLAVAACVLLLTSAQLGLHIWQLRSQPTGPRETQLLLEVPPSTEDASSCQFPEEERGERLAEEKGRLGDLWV
Description: cyno T cell binding EC50 against human T cell binding EC50.

The target in assay [3] is T2, cynomolgus monkey GITR. The assay is described as follows: flow cytometry, cyno T cell binding.
For assay [4], the target named is T1, human GITR. Description: flow cytometry, human T cell binding.
For assay [5], the target named is T1, human GITR. Description: cell-based or functional assay. This is another data set of the same source.
The target in assay [6] is T1, human GITR. The assay is described as follows: flow cytometry on activated human T cells.
Assay [7] has as its target T3, human GITR (Glucocorticoid-induced TNFR-related gene, TNFRSF18) (human, UniProt Q9Y5U5 26-241).
T3 construct: also called AITR; huGITR
T3 sequence: T1 sequence
Description: flow cytometry (MFI), antibody titration on anti-CD3-activated primary human T cells (CD25+CD4+).

The target in assay [8] is T3, human GITR (Glucocorticoid-induced …). Description: cell-based or functional assay.

B1: 5H7v2 (antibody, human IgG1, kappa, V domains shown)
VH: QVQLQESGPGLVKPSETLSLTCTVSGGSISSGGYFWSWIRQPPGKGLEWIGYIYYSGTTYYNPSLKSRVTISIDTSKNQFSLKLSSVTAADTAVYYCARDLFYYDTSGPRGFDPWGQGTLVTVSS
VL: EIVLTQSPGTLSLSPGERATLSCRASQTVSSNYLAWYQQKPGQAPRLLIYGSSTRATGIPDRFSGSGSGTDFTLTISRLEPEDFAVYYCQQYDSSPWTFGQGTKVEIKR
notes: Engineered variant; also called Ab26; SS-13807
With B1, the “Activation EC50 ng/mL (IFNg secretion)” value with human GITR [1] came to 1.6 ng/mL. The “Proliferation (Fold over CD3)” value in the assay with human GITR [1] and with human GITR [5] was 3.2 fold over CD3 throughout. For the same molecule, the “Cyno:Hu Binding EC50 Ratio” value in the assay with cynomolgus monkey GITR [2] came to 3.7 ratio. In addition, the values for the half-maximal effective concentration (EC50) with cynomolgus monkey GITR [3], with human GITR [4] and in the assay with human GITR [6] were 619 ng/mL, 164 ng/mL and 279 ng/mL, respectively. For the same molecule, in the assay with human GITR [5], the “Proliferation EC50” value was 11 ng/mL.

B2: 48A9v1 (antibody, human IgG1, kappa, V domains shown)
VH: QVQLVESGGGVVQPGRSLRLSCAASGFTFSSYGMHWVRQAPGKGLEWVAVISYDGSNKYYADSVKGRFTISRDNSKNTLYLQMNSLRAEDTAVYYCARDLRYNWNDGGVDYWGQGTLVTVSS
VL: DIQMTQSPSSLSASVGDRVIITCRASQSISSYLHWYKQKPGKAPKLLIYGASRLQSGVPSRFSGSGSGTDFTLTISSLQPEDFATYYCQQSSSTPLTFGGGTKVEIKR
notes: tied to 48A9v1 by Ab24 / SS-12513; also called Ab24; SS-12513
Consider B2, for which the EC50 in assay [7] is 145 ng/mL. Also, in assay [8], the “IFNg Secretion (Fold over CD3)” value was 0.9 fold over CD3 and the “IFNg Secretion EC50” value turned out to be 79.1 ng/mL.

B3: 7A10v1 (antibody, human IgG1, kappa, V domains shown)
VH: QVQLVESGGGVVQPGRSLRLSCAASGFTFSSYGMHWVRQAPGKGLEWMAVIWYVGSNKYYADSVKGRFTISRDNSKNTLYLQMNSLRAEDTAVYYCARGGELGRDYYSGMDVWGQGTTVTVSS
VL: DIQMTQSPSSLSASVGDRVTITCRASQGIRNDLGWYQQKPGKAPKRLIYAASSLQSGVPSRFSGSGSGTEFTLTISSLQPEDFATYYCQQHNSYPWTFGQGTKVEIKR
notes: Engineered variant; also called Ab39; SS-13810
As to B3, the “Activation EC50 ng/mL (IFNg secretion)” value with human GITR [1] amounted to 0.32 ng/mL. The “Proliferation (Fold over CD3)” value with human GITR [1] and in the assay with human GITR [5] was 3 fold over CD3 each time. Also, the “Cyno:Hu Binding EC50 Ratio” value in the assay with cynomolgus monkey GITR [2] is 6.4 ratio. The results for the EC50 with cynomolgus monkey GITR [3], with human GITR [4] and in the assay with human GITR [6] were 173 ng/mL, 27 ng/mL and 56 ng/mL, respectively. Further, in the assay with human GITR [5], the “Proliferation EC50” value is 3 ng/mL.

B4: 46E11 (antibody, human IgG1, kappa, V domains shown)
VH: QVQLVESGGGVVQPGRSLRLSCAASGFTFSSYGMHWVRQAPGKGLEWVAVIWYAGSNKYYADSVKGRFTISRDNSKNTLYLQMNSLRAEDTAVYYCARGDILTGYSLYYGMDVWGQGTTVTVSS
VL: B3 VL with T69A, Q89L
notes: Fully human parental antibody; also called Ab11; SS-12421
B4: in assay [7], a half-maximal effect (EC50) was put at 30 ng/mL. Moreover, in assay [8], the “IFNg Secretion (Fold over CD3)” value was found to be 2.2 fold over CD3 and the “IFNg Secretion EC50” value was determined as 0.9 ng/mL.

B5: 41G5v2 (antibody, human IgG1, kappa, V domains shown)
VH: B3 VH with M48V, V54P, D62E, D105Y, S108Y
VL: B3 VL with I21V, Q89L, S93N, E105D
notes: Engineered variant; also called Ab56; SS-13809
Regarding B5, the “Activation EC50 ng/mL (IFNg secretion)” value with human GITR [1] is 0.64 ng/mL. The “Proliferation (Fold over CD3)” value with human GITR [1] and in the assay with human GITR [5] was 3.5 fold over CD3 throughout. Besides, the “Cyno:Hu Binding EC50 Ratio” value with cynomolgus monkey GITR [2] came out at 4.6 ratio. For the same molecule, the EC50 was found to be 153 ng/mL with cynomolgus monkey GITR [3], 33 ng/mL in the assay with human GITR [4] and 57 ng/mL with human GITR [6]. Also, the “Proliferation EC50” value with human GITR [5] turned out to be 3 ng/mL.

B6: 33C9v2 (antibody, human IgG1, kappa, V domains shown)
VH: B3 VH with L4V, M48V, A49S, V54E, D62E, E101L, R104Y, D105Y, S108Y
VL: B3 VL with A50D, Q89L, N92H
notes: Engineered variant; also called Ab51; SS-13808
B6: in the assay with human GITR [1], the “Activation EC50 ng/mL (IFNg secretion)” value was 0.86 ng/mL. Besides, the “Proliferation (Fold over CD3)” value with human GITR [1] and with human GITR [5] was 2.9 fold over CD3 throughout. Further, in the assay with cynomolgus monkey GITR [2], the “Cyno:Hu Binding EC50 Ratio” value worked out at 8.6 ratio. Moreover, the EC50 with cynomolgus monkey GITR [3] was 301 ng/mL; with human GITR [4] it was 35 ng/mL; in the assay with human GITR [6], 60 ng/mL. Further, the “Proliferation EC50” value with human GITR [5] worked out at 7 ng/mL.

B7: 9H6v3 (antibody, human IgG1, kappa, V domains shown)
VH: B3 VH with A23V, V37I, M48V, V54E, D62E, E101R, R104K
VL: B3 VL with A51T, Q89L, S93T
notes: Engineered variant; also called Ab46; SS-13806
Take B7: the “Activation EC50 ng/mL (IFNg secretion)” value with human GITR [1] is 0.06 ng/mL. For the same molecule, the “Proliferation (Fold over CD3)” value with human GITR [1] and with human GITR [5] was 3.7 fold over CD3 throughout. In addition, in the assay with cynomolgus monkey GITR [2], the “Cyno:Hu Binding EC50 Ratio” value came out at 7.1 ratio. For the same molecule, the EC50 with cynomolgus monkey GITR [3] was 184 ng/mL; in the assay with human GITR [4], 26 ng/mL; in the assay with human GITR [6], 90 ng/mL. Besides, the “Proliferation EC50” value with human GITR [5] amounted to 6 ng/mL.

B8: 45A8v1 (antibody, human IgG1, lambda, V domains shown)
VH: QVQLVESGGGVVQPGRSLRLSCAASGFTFSSYGMHWVRQAPGKGLEWVAVIWHDGSNKYYADSVKGRFTISKDNSKNTLYLQMNSLRAEDTAVYYCAREYGGNFDYWGQGTLVTVSS
VL: QSALTQPASVSGSPGQSITISCTGTSSDVGTYNLVSWYQQHPGKAPKLMIYEVSKRPSGISNRFSGSKSGNTASLTISGLQAEDEADYYCASYAGYSTWVFGGGTKLTVLR
notes: tied to 45A8v1 by Ab21 / SS-12515; also called Ab21; SS-12515
The molecule B8 returned an EC50 in assay [7] of 102 ng/mL. Also, in assay [8], the “IFNg Secretion (Fold over CD3)” value is 1.8 fold over CD3 and the “IFNg Secretion EC50” value was 0.7 ng/mL.

B9: 49E2v1 (antibody, human IgG1, lambda, V domains shown)
VH: QVQLVESGGGVVQPGRSLRLSCAASGFTFSSYGMHWVRQAPGKGLEWVAVIWSDGNNKYYEDSVKGRFTISRDSSKNTLFLQMNSLRAEDTAVYYCARDTATPFDYWGQGTLVTVSS
VL: B8 VL with T31I, Y51H, I60V, Y96I, R111G
notes: tied to 49E2v1 by Ab23 / SS-12516; also called Ab23; SS-12516
B9 came in with an EC50 in assay [7] of 318 ng/mL. In assay [8], the “IFNg Secretion (Fold over CD3)” value came to 1.9 fold over CD3 and the “IFNg Secretion EC50” value is 2.2 ng/mL.
